Biological target: N-terminal GST-like domain of P. berghei glutamyl-tRNA synthetase (ERS-N) (P. berghei)
Assay: SEC-SAXS

For “N-terminal GST-like domain of P. berghei glutamyl-tRNA synthetase (ERS-N) (from UniProt A0A509AR09 1-240) (domain or fragment)”, the percent of dimers (OLIGOMER fit) was 77.9% and the percent of tetramers (OLIGOMER fit) was 22.1%.

Reference: publication PMC9878616
